Assay results published in PMC3438196.

Molecular target: Apobec3G T32E MAPPIT bait (human) (UniProt Q9HC16)
Assay: two-hybrid; MAPPIT (mammalian two-hybrid) in intact HEK293T cells: bait on the EpoR/leptin receptor chimera, prey on gp130 fragments, pXP2d2-rPAP1-luciferase reporter; fold induction of luciferase, Epo-stimulated (10 ng/ml hEpo) over unstimulated; 6-well or 96-well calcium phosphate transfection

Apobec3G T32E MAPPIT bait (human), sequence (Q9HC16 whole entry T32E, the tested form may be a part): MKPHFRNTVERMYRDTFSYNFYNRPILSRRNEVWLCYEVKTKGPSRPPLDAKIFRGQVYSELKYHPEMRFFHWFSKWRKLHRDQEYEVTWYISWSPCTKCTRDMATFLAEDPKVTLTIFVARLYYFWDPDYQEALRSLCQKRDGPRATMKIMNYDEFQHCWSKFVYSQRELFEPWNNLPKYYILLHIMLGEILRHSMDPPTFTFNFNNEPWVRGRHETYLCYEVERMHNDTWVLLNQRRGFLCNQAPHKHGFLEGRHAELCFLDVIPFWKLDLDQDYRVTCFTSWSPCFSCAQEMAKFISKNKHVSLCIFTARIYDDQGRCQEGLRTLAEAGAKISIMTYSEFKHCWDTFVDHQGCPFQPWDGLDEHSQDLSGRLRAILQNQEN

With “Gagpol MAPPIT prey (pMG2-Gagpol) (natural protein)” the MAPPIT signal, % of WT was 81 % of WT.
